Molecular target: T1, HLA-A*0201 molecule on TAP-deficient T2 cells (human)
T1 construct: also called HLA-A2
Test: in vitro reconstitution (T2 whole cell-binding) assay on TAP-deficient T2 cells, compared with the Flu reference peptide

B1: iLR1 59-68 (LLAARAIVAI) (peptide)
peptide: LLAARAIVAI
notes: Synthetic peptide bought from Biosynthan, more than 90% purity; also called RPS-001
binding result: binds

B2: iLR2 146-154 (ALCNTDSPL) (peptide)
peptide: ALCNTDSPL
notes: Synthetic peptide bought from Biosynthan, more than 90% purity; also called RPS-002
binding result: binds
